Test results as given in PMC9523049, “Structures of Mec1/ATR kinase endogenously stimulated by different genotoxins” (Cell Discovery, 2022).

Target: T1, Mec1 (yeast homolog of ATR), wild type, activated in vivo by HU or MMS (yeast (endogenous in cultured yeast …, UniProt P38111 1-2368))
T1 construct: Mec1 kinase, yeast homolog of human ATR, wild type, endogenous; purified together with Ddc2; they may stand in the supplementary file; also called ATR/Mec1; Mec1/ATR kinase; source: endogenously purified from cultured yeast cells treated with HU or MMS
T1 sequence (P38111 whole entry): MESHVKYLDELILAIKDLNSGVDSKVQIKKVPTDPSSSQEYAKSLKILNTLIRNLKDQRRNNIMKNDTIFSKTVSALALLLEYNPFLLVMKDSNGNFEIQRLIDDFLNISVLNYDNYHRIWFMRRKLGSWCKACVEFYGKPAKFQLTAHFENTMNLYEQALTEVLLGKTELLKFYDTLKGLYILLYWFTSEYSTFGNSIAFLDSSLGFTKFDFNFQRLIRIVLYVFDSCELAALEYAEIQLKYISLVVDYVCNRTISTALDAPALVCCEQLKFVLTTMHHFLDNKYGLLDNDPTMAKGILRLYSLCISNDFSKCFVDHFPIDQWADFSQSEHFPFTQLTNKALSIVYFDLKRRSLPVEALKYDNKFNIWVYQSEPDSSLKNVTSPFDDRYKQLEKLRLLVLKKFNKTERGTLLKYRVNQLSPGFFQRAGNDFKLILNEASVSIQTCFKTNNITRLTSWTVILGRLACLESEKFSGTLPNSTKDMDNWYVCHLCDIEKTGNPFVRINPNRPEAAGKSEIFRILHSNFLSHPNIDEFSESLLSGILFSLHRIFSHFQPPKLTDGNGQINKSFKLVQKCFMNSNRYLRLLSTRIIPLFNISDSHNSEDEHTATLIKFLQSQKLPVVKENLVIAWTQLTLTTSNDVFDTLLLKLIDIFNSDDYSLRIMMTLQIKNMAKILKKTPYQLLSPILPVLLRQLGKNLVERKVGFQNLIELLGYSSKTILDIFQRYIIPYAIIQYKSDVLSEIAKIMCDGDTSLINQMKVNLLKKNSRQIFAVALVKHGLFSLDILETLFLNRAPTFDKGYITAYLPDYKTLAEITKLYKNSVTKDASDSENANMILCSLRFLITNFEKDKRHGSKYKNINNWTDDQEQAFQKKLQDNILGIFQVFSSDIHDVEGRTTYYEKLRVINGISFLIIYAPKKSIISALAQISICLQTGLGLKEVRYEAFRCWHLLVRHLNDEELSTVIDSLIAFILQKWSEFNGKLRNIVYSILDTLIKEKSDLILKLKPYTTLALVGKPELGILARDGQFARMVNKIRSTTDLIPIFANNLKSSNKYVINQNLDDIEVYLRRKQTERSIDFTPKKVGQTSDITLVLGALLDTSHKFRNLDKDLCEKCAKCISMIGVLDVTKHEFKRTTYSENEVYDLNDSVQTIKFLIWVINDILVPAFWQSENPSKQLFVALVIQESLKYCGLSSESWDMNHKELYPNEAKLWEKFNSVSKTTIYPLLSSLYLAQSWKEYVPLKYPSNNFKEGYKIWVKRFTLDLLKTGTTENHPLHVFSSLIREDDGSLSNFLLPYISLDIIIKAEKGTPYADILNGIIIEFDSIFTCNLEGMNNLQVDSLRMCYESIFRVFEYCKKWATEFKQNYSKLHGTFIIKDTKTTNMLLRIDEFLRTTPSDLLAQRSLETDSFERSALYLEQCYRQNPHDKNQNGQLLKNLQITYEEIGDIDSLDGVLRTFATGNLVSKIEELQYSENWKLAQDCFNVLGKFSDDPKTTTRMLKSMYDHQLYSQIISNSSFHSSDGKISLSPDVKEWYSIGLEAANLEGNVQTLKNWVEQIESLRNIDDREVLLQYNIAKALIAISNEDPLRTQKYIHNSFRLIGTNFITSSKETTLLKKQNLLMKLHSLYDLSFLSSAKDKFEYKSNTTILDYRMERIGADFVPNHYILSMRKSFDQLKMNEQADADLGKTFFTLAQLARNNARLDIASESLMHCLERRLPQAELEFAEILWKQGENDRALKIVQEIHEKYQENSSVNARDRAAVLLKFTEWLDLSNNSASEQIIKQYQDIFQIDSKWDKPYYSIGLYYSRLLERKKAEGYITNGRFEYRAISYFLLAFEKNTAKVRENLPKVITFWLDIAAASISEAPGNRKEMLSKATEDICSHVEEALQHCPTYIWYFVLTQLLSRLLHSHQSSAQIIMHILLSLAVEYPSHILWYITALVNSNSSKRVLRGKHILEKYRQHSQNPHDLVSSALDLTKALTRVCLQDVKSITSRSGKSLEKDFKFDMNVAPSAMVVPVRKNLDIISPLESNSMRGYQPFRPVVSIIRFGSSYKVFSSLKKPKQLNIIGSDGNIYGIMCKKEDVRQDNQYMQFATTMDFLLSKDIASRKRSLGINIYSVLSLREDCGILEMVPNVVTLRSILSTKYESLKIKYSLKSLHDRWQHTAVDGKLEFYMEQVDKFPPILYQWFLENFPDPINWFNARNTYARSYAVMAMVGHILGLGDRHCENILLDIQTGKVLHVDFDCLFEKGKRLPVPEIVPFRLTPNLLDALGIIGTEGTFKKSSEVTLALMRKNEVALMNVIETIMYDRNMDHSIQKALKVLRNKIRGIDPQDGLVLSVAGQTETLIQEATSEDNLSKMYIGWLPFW
Experiment: cryo-EM structure; Mec1-Ddc2 complex endogenously purified from yeast cells treated with HU (HU-Dimer1, HU-Dimer2) or MMS (MMS-Dimer)
Settings: both partners purified

binding result: binds
B1: Ddc2 (yeast homolog of ATRIP) (natural protein, UniProt Q04377 1-747, looked up)
chain: MRRETVGEFSSDDDDDILLELGTRPPRFTQIPPSSAALQTQIPTTLEVTTTTLNNKQSKNDNQLVNQLNKAQGEASMLRDKINFLNIEREKEKNIQAVKVNELQVKHLQELAKLKQELQKLEDEKKFLQMEARGKSKREVITNVKPPSTTLSTNTNTITPDSSSVAIEAKPQSPQSKKRKISDNLLKKNMVPLNPNRIIPDETSLFLESILLHQIIGADLSTIEILNRLKLDYITEFKFKNFVIAKGAPIGKSIVSLLLRCKKTLTLDRFIDTLLEDIAVLIKEISVHPNESKLAVPFLVALMYQIVQFRPSATHNLALKDCFLFICDLIRIYHHVLKVPIHESNMNLHVEPQIFQYELIDYLIISYSFDLLEGILRVLQSHPKQTYMEFFDENILKSFEFVYKLALTISYKPMVNVIFSAVEVVNIITSIILNMDNSSDLKSLISGSWWRDCITRLYALLEKEIKSGDVYNENVDTTTLHMSKYHDFFGLIRNIGDNELGGLISKLIYTDRLQSVPRVISKEDIGMDSDKFTAPIIGYKMEKWLLKLKDEVLNIFENLLMIYGDDATIVNGEMLIHSSKFLSREQALMIERYVGQDSPNLDLRCHLIEHTLTIIYRLWKDHFKQLREEQIKQVESQLIMSLWRFLVCQTETVTANEREMRDHRHLVDSLHDLTIKDQASYYEDAFEDLPEYIEEELKMQLNKRTGRIMQVKYDEKFQEMARTILESKSFDLTTLEEADSLYISMGL
notes: Ddc2, yeast homolog of human ATRIP, endogenous; purified together with Mec1; they may stand in the supplementary file; source: endogenously purified from cultured yeast cells treated with HU or MMS
